Reference: article PMC3935945, “Insight into Highly Conserved H1 Subtype-Specific Epitopes in Influenza Virus Hemagglutinin” (PLoS ONE, 2014)

Tests used:
Test in all cases: ELISA
[1] = biological target: T1, recombinant hemagglutinin (HA) of 2009 pandemic virus A/Korea/01/2009 (KR01) (Influenza A virus A/Korea/01/2009 (H1N1), strain); conditions: both partners purified
T1 construct: also called KR01 HA; H1N1 HA

[2] = biological target: T2, hemagglutinin (HA) of H1N1 A/Thailand/CU44/2006 (CU44) (Influenza A virus A/Thailand/CU44/2006 …, UniProt A7LI25, strain); conditions: both partners purified
T2 construct: also called CU44 HA

[3] = biological target: T3, HA from A/Brisbane/59/2007(H1N1) (Influenza A virus A/Brisbane/59/2007 …, UniProt D5F1Q8, strain)
T3 construct: also called BR59

[4] = biological target: T4, HA from A/California/04/2009(H1N1) (Influenza A virus A/California/04/2009 …, UniProt C3W5S1, strain)
T4 construct: also called CA04

[5] = biological target: T5, HA from A/California/07/2009(H1N1) (Influenza A virus A/California/07/2009 …, UniProt C3W5X2, strain)
T5 construct: also called CA07

Measured: binding result

B1: H1-specific monoclonal antibody GC0587 (antibody, V domains shown)
VH: VKLQQSGGGVVQPGGSLRLSCAASGFTFSDYDMSWIRQAPGKGLEWVSGILGGSERSYYRDSVKGRFTISRDNSRKTLYLQMNSLRAEDTAVYYCARHGSPGYTLYAWDYWGQGTMVTVSS
VL: DIQMTQSPASLAVSPGQRATITCRASESVSNYGINFINWFQQKPGQPPKLLIYTASNKGTGVPARFSGSGSGTDFTLTINPVEAEDTANYFCQQTKEVPYTFGGGTKLEIK
notes: copies: 2 + 2
binds: all assays above

B2: H1-specific monoclonal antibody GC0757 (antibody, V domains shown)
VH: VKLQESGAVVQPGGSLRLSCAASGFTGSDYDMSWIRQAPGKGLEWVSGILGGSERSYYRDSVKGRSTISRDNSRKTLYLEMNSLRAEDTAVYYCARHSWGAYVQYGMDGWGQGTTVTVSS
VL: DIQMTQSPASLAVSPGQRATITCRASESVSNYGINFINWFQQKPGQPPKLLIYTASNKGTGVPARFSGSGSGTDFTLTINPVEAEDTANYFCQQTKEVPYGTFGGTKLEIK
notes: copies: 2 + 2
binds: all assays above
